Usually EC50 stands for the midpoint of the concentration-response curve.

The target of experiment [1] is full-length (FL) human mGluR5 on BA/F3-mGluR5 clone 10C9 cells (human) (UniProt P41594). Kind of experiment: cell-based or functional assay.
For experiment [2], the target named is human mGluR5 extracellular domain (human-mGluR5-ECD) (human) (UniProt P41594). The experiment is described as follows: HTRF, soluble ECD. (In TR-FRET formats the signal depends on donor and acceptor labels being close together.)
The target is the same in experiment [3]. Kind of experiment: HTRF, soluble ECD. This is another data set of the same source.
Experiment [4] has as its target T1, cynomolgus monkey mGluR5 extracellular domain (monkey-mGluR5-ECD) (cynomolgus monkey, UniProt P41594 21-580 (human entry), limits assumed).
T1 construct: ECD construct made 'in a similar fashion' to the human one; also called cyno-mGluR5
Kind of experiment: HTRF, soluble ECD. The protocol:
(§1) Binding of antibodies to mGluR5/mGluRJ measured via Homogeneous Time-Resolved Fluorescence (HTRF). Binding assays were performed using HTRF reagents from CisBio. Ten microliters of an antibody dilution series (highest final concentration of 30 nM) was incubated with 10 μl of mGluR-ECD (10 nM final concentration) in HTRF buffer (50 mM Phosphate buffer pH7, 0.8M KF (potassium fluoride), 0.2% BSA). Twenty microliters of Europium-labeled anti-hu-Fc donor (2 nM final concentration, CisBio Catalog No. 61HFCKLB) and 20 μl of XL665-labeled anti-Flag acceptor (60 nM final concentration, CisBio Catalog No. 61FG2XLB) were added to each well and incubated for 1 hour at room temperature. Alternatively, the antibody dilution series was incubated with 10 μl of biotinylated mGluR-ECD (10 nM final concentration), and 20 μl of Europium-labeled anti-hu-Fc donor (2 nM final concentration) and 20 μl of d2-labeled streptavidin acceptor (60 nM final concentration, CisBio Catalog No. 610SADLB) were added to each well. Fluorescence was measured at 620 and 665 nm with a delay of 300 μsec. Results were expressed as the ratio of signal at 665 nm over 620 nm. EC₅₀ values were calculated for binding of Ab1-Ab23 to human-mGluR5-ECD, of Ab1-Ab21 to rat-mGluR5-ECD, and of Ab1, Ab2 and Ab4-Ab12 to monkey-mGluR5-ECD and to human-mGluR1-ECD (TABLE 1).

Experiment [5] deals with T2, human mGluR1 extracellular domain (human-mGluR1-ECD) (human, UniProt Q13255 19-592, limits assumed).
T2 construct: ECD construct made 'in a similar fashion' to the human mGluR5 one; also called hu-mGluR1
Kind of experiment: HTRF, soluble ECD. On the procedure:
as §1

The target in experiment [6] is T3, rat mGluR5 extracellular domain (rat-mGluR5-ECD) (rat, UniProt P31424 21-504).
T3 construct: ECD construct made 'in a similar fashion' to the human one
The experiment is described as follows: HTRF, soluble ECD. On the procedure: as §1

Experiment [7] addresses full-length (FL) human mGluR5 on BA/F3-mGluR5 clone 10C9 cells (human) (UniProt P41594). Kind of experiment: flow cytometry, BA/F3-mGluR5 10C9 cells, 10 ug/ml antibody. On the technique in general: Flow cytometry measures light scatter and fluorescence of single cells or particles in a stream.
Experiment [8] addresses human mGluR5 extracellular domain (human-mGluR5-ECD) (human) (UniProt P41594). Kind of experiment: AlphaLISA, biotinylated ECD. In general terms: In Alpha technology, singlet oxygen from a donor bead excites a nearby acceptor bead.
For experiment [9] the target is unchanged. The experiment is described as follows: AlphaLISA, biotinylated ECD. This is another data set of the same source.

Chain of human mGluR5 extracellular domain (human-mGluR5-ECD) (human) (P41594 other isoform, or with tags, fused parts or gaps): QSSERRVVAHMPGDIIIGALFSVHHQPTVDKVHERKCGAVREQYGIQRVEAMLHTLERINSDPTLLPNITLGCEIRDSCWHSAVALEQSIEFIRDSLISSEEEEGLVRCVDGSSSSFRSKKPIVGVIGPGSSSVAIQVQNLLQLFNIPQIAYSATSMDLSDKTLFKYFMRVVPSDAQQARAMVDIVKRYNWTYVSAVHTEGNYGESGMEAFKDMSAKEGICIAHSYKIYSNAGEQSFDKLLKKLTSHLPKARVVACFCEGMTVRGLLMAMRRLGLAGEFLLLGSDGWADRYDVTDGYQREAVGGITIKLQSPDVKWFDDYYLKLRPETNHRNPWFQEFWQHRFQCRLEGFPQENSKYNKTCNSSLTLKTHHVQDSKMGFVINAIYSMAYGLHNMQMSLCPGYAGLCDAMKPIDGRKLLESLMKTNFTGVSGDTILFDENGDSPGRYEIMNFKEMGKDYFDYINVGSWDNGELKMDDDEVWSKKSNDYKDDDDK
T1 sequence (P41594 other isoform, or with tags, fused parts or gaps limits assumed): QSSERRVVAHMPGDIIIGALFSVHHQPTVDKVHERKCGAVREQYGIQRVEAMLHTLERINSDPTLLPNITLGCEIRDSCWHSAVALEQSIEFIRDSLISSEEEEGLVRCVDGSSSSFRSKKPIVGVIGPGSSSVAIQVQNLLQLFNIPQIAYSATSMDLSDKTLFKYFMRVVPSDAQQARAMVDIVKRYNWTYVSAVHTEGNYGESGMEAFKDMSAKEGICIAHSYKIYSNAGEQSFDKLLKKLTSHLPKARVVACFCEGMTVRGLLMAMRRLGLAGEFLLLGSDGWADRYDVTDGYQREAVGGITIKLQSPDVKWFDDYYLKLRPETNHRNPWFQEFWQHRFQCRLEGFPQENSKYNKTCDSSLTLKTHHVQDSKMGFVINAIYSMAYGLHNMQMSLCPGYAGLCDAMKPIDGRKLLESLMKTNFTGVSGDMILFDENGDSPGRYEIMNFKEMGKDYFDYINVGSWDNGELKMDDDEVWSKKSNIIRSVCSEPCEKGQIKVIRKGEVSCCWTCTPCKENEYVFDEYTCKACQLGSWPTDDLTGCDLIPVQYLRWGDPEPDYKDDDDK
T2 sequence (Q13255 other isoform, or with tags, fused parts or gaps limits assumed): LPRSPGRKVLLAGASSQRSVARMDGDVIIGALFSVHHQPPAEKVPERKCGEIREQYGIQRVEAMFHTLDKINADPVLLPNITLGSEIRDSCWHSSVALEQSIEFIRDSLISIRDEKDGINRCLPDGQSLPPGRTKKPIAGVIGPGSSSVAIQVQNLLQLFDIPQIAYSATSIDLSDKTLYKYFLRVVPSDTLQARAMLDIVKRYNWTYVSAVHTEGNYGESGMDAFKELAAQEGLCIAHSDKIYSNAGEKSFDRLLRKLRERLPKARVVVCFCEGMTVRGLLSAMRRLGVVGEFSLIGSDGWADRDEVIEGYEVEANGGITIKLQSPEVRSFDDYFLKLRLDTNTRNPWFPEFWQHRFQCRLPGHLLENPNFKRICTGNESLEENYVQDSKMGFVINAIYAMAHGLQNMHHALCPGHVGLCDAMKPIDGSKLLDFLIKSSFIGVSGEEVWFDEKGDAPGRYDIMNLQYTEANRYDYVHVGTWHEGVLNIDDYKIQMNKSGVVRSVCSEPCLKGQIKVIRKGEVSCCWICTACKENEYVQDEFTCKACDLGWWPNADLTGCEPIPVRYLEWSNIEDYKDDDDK
T3 sequence (P31424 other isoform, or with tags, fused parts or gaps limits assumed, form in doubt): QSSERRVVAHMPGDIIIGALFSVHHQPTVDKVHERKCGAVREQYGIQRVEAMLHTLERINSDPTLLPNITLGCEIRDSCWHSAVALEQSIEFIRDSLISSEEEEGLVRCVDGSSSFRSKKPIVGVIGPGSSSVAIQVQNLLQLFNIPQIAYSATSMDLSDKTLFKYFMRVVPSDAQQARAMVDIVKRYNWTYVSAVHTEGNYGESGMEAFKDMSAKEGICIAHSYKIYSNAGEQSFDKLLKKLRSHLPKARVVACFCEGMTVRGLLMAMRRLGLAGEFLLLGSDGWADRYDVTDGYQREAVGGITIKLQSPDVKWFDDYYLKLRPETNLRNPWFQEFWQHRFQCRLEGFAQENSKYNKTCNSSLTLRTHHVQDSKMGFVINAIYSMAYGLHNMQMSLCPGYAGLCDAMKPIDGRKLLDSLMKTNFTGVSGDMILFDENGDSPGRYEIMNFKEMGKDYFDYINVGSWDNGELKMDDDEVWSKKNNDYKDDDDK

B1: mGluR5 Ab7 (antibody, V domains shown)
VH: QSVEESGGRLVTPGTPLTLTCTVSGFSLSRYAMGWVRHVPGKGLEWIGIIYASGSTYYASWAKGRFTISKTSTTVDLKITSPTTEDTATYFCARSRTATYDAVDPWGPGTLVTVSS
VL: AYDMTQTPASVSEPVGGTVTIKCQASQSISSYLSWYQQKPGQPPKLLIYEASTLASGVSSRFKGSGSGTEYTLTISDLECDDAAAYYCQQDLSGSNLDNSFGGGTEVVVKR
notes: Rabbit variable regions on human heavy and light chain constant regions (chimeric)
Regarding B1, in [1], the pERK Assay Inhibition IC50-nM was 1.34 nM. For the same molecule, the concentration for a half-maximal effect (EC50) in [2] was 1.02 nM; in experiment [3] it was under 2 nM; in [4], 0.37 nM; in experiment [6], 0.63 nM. Besides, in experiment [5], the binding result is on record as “no binding”. The mGluR5 (FL) cell binding-fold over background in experiment [7] was found to be 28.9 fold.

B2: mGluR5 Ab11 (antibody, V domains shown)
VH: QSLEESGGGLVKPGGTLTLTCTASGFSFSSSYWICWVRQAPGKGLEWIGCIYGSTDAYNANWAKGRFAISQTSSTTVTLQMTSLPAADTATYFCARHDGDIGWTLDLWGPGTLVTVSS
VL: AYDMTQTPASVEVAVGGTVTIKCQASLTIGTRLAWYQQKPGQPPKLLIYKASTLASGVSSRFKGSGSGTQFALTISDLECADAATYYCQQAAYVTDIDNAFGGGTEVVVKR
notes: as for B1
For the molecule B2, the pERK Assay Inhibition IC50-nM in [1] is 0.14 nM. The 50% effective concentration (EC50) in [2] was 0.545 nM; in [3], under 2 nM; in [4], 0.255 nM; in experiment [6], 0.423 nM. The binding result in [5] is recorded as “no binding”. In experiment [7], this molecule displayed a mGluR5 (FL) cell binding-fold over background of 37 fold.

B3: mGluR5 Ab12 (antibody, V domains shown)
VH: QSVEESGGRLVTPGTPLTLTCTVSGIDLSSNAMGWVRQAPGKGLEWIGIIYASGNAWYANWVKGRFTISKTSTTVDLKITSPTTEDTATYFCARDATATWDYFNLWGQGTLVTVSS
VL: AYDMTQTPSSVSAAVGGTVTIKCQASQSISNWLSWYQQKPGQPPKLLIYRASTLASGVSSRFSGSGSGTEFTLTISDLECADAATYYCQQGYSVANVDNAFGGGTEVVVKR
notes: as for B1
As to B3, the pERK Assay Inhibition IC50-nM in [1] worked out at 3.73 nM. In addition, the EC50 in experiment [2] was 0.775 nM; in experiment [3], under 2 nM; in experiment [4], 0.359 nM; in experiment [6] it was 0.991 nM. Moreover, the binding result in experiment [5] is reported as “no binding”. The molecule further came in with a mGluR5 (FL) cell binding-fold over background in experiment [7] of 31.9 fold.

B4: mGluR5 Ab2 (antibody, V domains shown)
VH: QQQLEESGGGLVKPGGTLTLTCKASGIDFSGYYYMCWVRQAPGKGLEWIACVYTGDGGTYYASWAKGRFTISKTSSTTVTLQMTSLTAADTATYFCARGSGVGSYGYNLWGQGTLVTVSS
VL: DIVMTQTPASVEAAVGGTVTIKCQASESIYSNLAWYQQKPGQPPKLLIYRASNLESGVPSRFKGSGSGTEFTLTISDLECADAATYYCQGYYAITTTNAFGGGTEVVVKR
notes: as for B1
Regarding B4, the pERK Assay Inhibition IC50-nM in experiment [1] was found to be 0.16 nM. The EC50 is 0.341 nM in experiment [2], under 2 nM in experiment [3], 0.36 nM in experiment [4] and 0.476 nM in experiment [6]. The binding result in experiment [5] is “no binding”. In [7], this molecule displayed a mGluR5 (FL) cell binding-fold over background of 40.3 fold.

B5: mGluR5 Ab24 (antibody, V domains shown)
VH: QQQLEESGGGLVKPGGTLTLTCKASGIDFSNVYYMCWVRQAPGKGPEWIACIYVGDGSTYDASWARGRFTISKTSSTTVTLQMISLTAADTATYFCAGGTGVGSYGYSLWGPGTLVTVSS
VL: DIVMTQTPASVEAAVGGTVTIKCQASESIYSNLAWYHQKPGQPPKLLIYRASNLESGVPSRFKGSGSGTDFTLTISDLECADAATYYCQGYYASVVTNGFGGGTEVVVKR
As for B5, in experiment [1], the pERK Assay Inhibition IC50-nM was 0.1 nM. For the same molecule, the half-maximal effective concentration (EC50) in experiment [8] is under 2 nM; in [9], 0.0947 nM. For the same molecule, the mGluR5 (FL) cell binding-fold over background in [7] came out at 37.2 fold.

B6: mGluR5 Ab26 (antibody, V domains shown)
VH: QSVEESGGGLVKPEGSLTLTCKASGFDLSSYYYMCWVRQAPGKGPEWIACIYAGDGTTYYASWAKGRFTISKTSSTTVTLQMTSLTAADTATYFCARGTGVGSYGYNLWGPGTLVTVSS
VL: DIVMTQTPASVEAAVGGTVTIKCQASENIYSNLAWYQQKPGQPPKLLIYRASNLESGVPSRFKGSGSGTEFTLTISDLECDDAATYYCQGYYPSAVTNAFGGGTEVVVKR
As to B6, in [1], the pERK Assay Inhibition IC50-nM was determined as 0.1 nM. Moreover, the half-maximal effective concentration (EC50) in [8] is under 2 nM; in experiment [9], 0.101 nM. This molecule also showed a mGluR5 (FL) cell binding-fold over background in [7] of 39.4 fold.

B7: mGluR5 Ab25 (antibody, V domains shown)
VH: QRQLEESGGGLVKPGGALTLTCKASGIDFSSYYYRCWVRQAPGKGLEWIACIYTGDGTTYYASWAKGRFTTSKTSSTTVTLQMTSLTAADTATYFCARGSGVGSYGYNFWGPGTLVTVSS
VL: DIVMTQTPASVEAAVGGTVTIKCQASESIYSNLAWYQQKPGQPPKLLIYRASTLESGVPSRFKGSGSGTEFTLTISDLECADAATYYCQGYYASIITNAFGGGTEVVVKR
With B7, the pERK Assay Inhibition IC50-nM in experiment [1] stood at 0.11 nM. The figures for the concentration giving a half-maximal response (EC50) in experiment [8] and in experiment [9] were under 2 nM and 0.0915 nM, respectively. The mGluR5 (FL) cell binding-fold over background in experiment [7] worked out at 37.9 fold.

B8: mGluR5 Ab5 (antibody, V domains shown)
VH: QEQLVESGGGLVQPEGSLTLTCTASGIDFSSGYFMCWVRQAPGKGLEWIACISPYSDNTWYANWAKGRFTISKTSSTTVTLQMTSLTAADTAAYRCARTMAIGAYNPFKLWGQGTLVTVSS
VL: ALVMTQTPSSVSAAVGGTVTINCQASQNIYSNLAWYQQKPGQRPKLLIYDASDLASGVSSRVKGSGSGTEFTLTISDLECADAATYYCQGYYSGNAFGGGTEVVVKR
notes: as for B1
The molecule B8 registered a pERK Assay Inhibition IC50-nM in experiment [1] of 1.51 nM. The EC50 in experiment [2] was 0.54 nM; in experiment [3], under 2 nM; in experiment [4], 0.31 nM; in experiment [6] it was 0.311 nM. The binding result in experiment [5] is recorded as “no binding”. Also, the mGluR5 (FL) cell binding-fold over background in [7] was 36.3 fold.

B9: mGluR5 Ab10 (antibody, V domains shown)
VH: QSLEESGGRLVTPGTPLTLTCTVSGIDLSSYAVGWVRQAPGKGLEYIGIIYASGNTWYASWVKGRFTISKTSTTVDLKMTSLTTEDTATYFCARGHGATYDYFNLWGPGTLVTVSS
VL: AYDMTQTPASVEVAVGGTVTIKCQASQSISSWLAWYQQKPGQPPKLLIYDASDLASGVPSRFKGSGSGTEYTLTISGVQCDDAATYYCQQGLATANVDNVFGGGTEVVVKR
notes: as for B1
In experiment [1], B9 showed a pERK Assay Inhibition IC50-nM of 1.07 nM. The 50% effective concentration (EC50) in [2] was 0.409 nM; in [3], under 2 nM; in experiment [4], 0.339 nM; in experiment [6], 0.848 nM. Further, the binding result in experiment [5] was “no binding”. This molecule also registered a mGluR5 (FL) cell binding-fold over background in [7] of 27.9 fold.

B10: mGluR5 Ab9 (antibody, V domains shown)
VH: QSVEESGGRLVTPGTPLTLTCTVSGFSLNNYAMNWIRQAPGKGLEWIGIIYGSGSTYYASWAKGRFTASKTSTTVDLKMTSLTTEDTATYFCARDELAAGINYFTLWGQGTLVTVSS
VL: ALVMTQTPASVEVAVGGTVTIKCQASQNIIDWCSWYQQKLGQPPKLLIYEASKLASGVPSRFKGSGSGTQFTLTISGVECADAATYYCQQGYSPSGVDNVFGGGTEVVVKR
notes: as for B1
B10: the pERK Assay Inhibition IC50-nM in experiment [1] was 2.97 nM. For the same molecule, the concentration giving a half-maximal response (EC50) in experiment [2] was 0.998 nM; in [3], under 2 nM; in [4] it was 0.398 nM; in [6], 0.519 nM. Also, in experiment [5], the binding result is “no binding”. In experiment [7], the mGluR5 (FL) cell binding-fold over background is 28.4 fold.

B11: mGluR5 Ab6 (antibody, V domains shown)
VH: QSLEESGGRLVTPGGTLTLTCTVSGIDLSSYAMSWVRQAPGKGLEWIGIIYASGNTWYANWVKGRFTISKTSTTVDLKMTSPTTEDTATYFCARDSSATFNYLDLWGQGTLVTVSS
VL: AFHMTQTPASMEVAVGGTVTMKCQASESIDTYLNWYQQKPGQPPKLLIYQASKLASGVPSRFKGSGSGTEFTLTISGVECADAATYYCQQGWSTNDVDNVFGGGTEVVVKR
notes: as for B1
B11: the pERK Assay Inhibition IC50-nM in experiment [1] is 4.29 nM. Further, the concentration giving a half-maximal response (EC50) in experiment [2] was 0.415 nM; in experiment [3], under 2 nM; in experiment [4], 0.424 nM; in experiment [6], 0.771 nM. Moreover, the binding result in experiment [5] was “no binding”. Moreover, the mGluR5 (FL) cell binding-fold over background in experiment [7] stood at 24.4 fold.

Values taken from patent publication US20220306734A1 (H LUNDBECK A S, published 2022).
